Data taken from PMC11476584.
Each block holds one molecule with its values, some of them ahead of it.

Target: Apolipoprotein E4 (APOE4), overexpressed in transfected Huh7 cells (human) (UniProt P02649)
Experiment: co-IP; APOE precipitated with anti-APOE antibody (sc-13521) and Protein G Sepharose, overnight at 4 °C, from lysates of APOE3- and APOE4-transfected Huh7 cells; Western blot, target bands normalised to the APOE signal

UniProt P02649, sequence (P02649 19-317): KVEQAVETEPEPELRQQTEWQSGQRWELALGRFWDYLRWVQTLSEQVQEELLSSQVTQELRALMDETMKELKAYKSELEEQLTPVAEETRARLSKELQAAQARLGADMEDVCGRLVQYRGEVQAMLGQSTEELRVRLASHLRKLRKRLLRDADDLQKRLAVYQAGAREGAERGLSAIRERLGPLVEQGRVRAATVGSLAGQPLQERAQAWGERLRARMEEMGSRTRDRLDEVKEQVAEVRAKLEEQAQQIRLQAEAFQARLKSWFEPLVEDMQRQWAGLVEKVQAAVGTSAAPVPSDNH

fold change of the target/APOE band against APOE3-transfected cells: 1.2 fold
Molecule: Voltage-dependent anion-selective channel 1 (VDAC1) (from UniProt P21796 1-283) (natural protein)

fold change of the target/APOE band against APOE3-transfected cells: 2.11 fold
B1: Lon protease (LONP1) (enzyme)
chain: FWEASSRGGGAFSGGEDASEGGAEEGAGGAGGSAGAGEGPVITALTPMTIPDVFPHLPLIAITRNPVFPRFIKIIEVKNKKLVELLRRKVRLAQPYVGVFLKRDDSNESDVVESLDEIYHTGTFAQIHEMQDLGDKLRMIVMGHRRVHISRQLEVEPEEPEAENKHKPRRKSKRGKKEAEDELSARHPAELAMEPTPELPAEVLMVEVENVVHEDFQVTEEVKALTAEIVKTIRDIIALNPLYRESVLQMMQAGQRVVDNPIYLSDMGAALTGAESHELQDVLEETNIPKRLYKALSLLKKEFELSKLQQRLGREVEEKIKQTHRKYLLQEQLKIIKKELGLEKDDKDAIEEKFRERLKELVVPKHVMDVVDEELSKLGLLDNHSSEFNVTRNYLDWLTSIPWGKYSNENLDLARAQAVLEEDHYGMEDVKKRILEFIAVSQLRGSTQGKILCFYGPPGVGKTSIARSIARALNREYFRFSVGGMTDVAEIKGHRRTYVGAMPGKIIQCLKKTKTENPLILIDEVDKIGRGYQGDPSSALLELLDPEQNANFLDHYLDVPVDLSKVLFICTANVTDTIPEPLRDRMEMINVSGYVAQEKLAIAERYLVPQARALCGLDESKAKLSSDVLTLLIKQYCRESGVRNLQKQVEKVLRKSAYKIVSGEAESVEVTPENLQDFVGKPVFTVERMYDVTPPGVVMGLAWTAMGGSTLFVETSLRRPQDKDAKGDKDGSLEVTGQLGEVMKESARIAYTFARAFLMQHAPANDYLVTSHIHLHVPEGATPKDGPSAGCTIVTALLSLAMGRPVRQNLAMTGEVSLTGKILPVGGIKEKTIAAKRAGVTCIVLPAENKKDFYDLAAFITEGLEVHFVEHYREIFDIAFPDEQAEALAVER

fold change of the target/APOE band against APOE3-transfected cells: 1.29 fold
B2: Mitochondrial import receptor subunit TOM40 (TOMM40) (natural protein)
chain: MGNVLAASSPPAGPPPPPAPALVGLPPPPPSPPGFTLPPLGGSLGAGTSTSRSSERTPGAATASASGAAEDGACGCLPNPGTFEECHRKCKELFPIQMEGVKLTVNKGLSNHFQVNHTVALSTIGESNYHFGVTYVGTKQLSPTEAFPVLVGDMDNSGSLNAQVIHQLGPGLRSKMAIQTQQSKFVNWQVDGEYRGSDFTAAVTLGNPDVLVGSGILVAHYLQSITPCLALGGELVYHRRPGEEGTVMSLAGKYTLNNWLATVTLGQAGMHATYYHKASDQLQVGVEFEASTRMQDTSVSFGYQLDLPKANLLFKGSVDSNWIVGATLEKKLPPLPLTLALGAFLNHRKNKFQCGFGLTIG
